Measured values: PMC11009412, “Pathogenic mutations of human phosphorylation sites affect protein–protein interactions” (Nature Communications, 2024)

B1: WDR83 (protein, UniProt Q9BRX9 1-315, looked up)
WD repeat domain-containing …: MAFPEPKPRPPELPQKRLKTLDCGQGAVRAVRFNVDGNYCLTCGSDKTLKLWNPLRGTLLRTYSGHGYEVLDAAGSFDNSSLCSGGGDKAVVLWDVASGQVVRKFRGHAGKVNTVQFNEEATVILSGSIDSSIRCWDCRSRRPEPVQTLDEARDGVSSVKVSDHEILAGSVDGRVRRYDLRMGQLFSDYVGSPITCTCFSRDGQCTLVSSLDSTLRLLDKDTGELLGEYKGHKNQEYKLDCCLSERDTHVVSCSEDGKVFFWDLVEGALALALPVGSGVVQSLAYHPTEPCLLTAMGGSVQCWREEAYEAEDGAG
B2: ESF1 (protein, UniProt Q9H501 2-851, looked up)
ESF1 homolog: SSKQEIMSDQRFRRVAKDPRFWEMPEKDRKVKIDKRFRAMFHDKKFKLNYAVDKRGRPISHSTTEDLKRFYDLSDSDSNLSGEDSKALSQKKIKKKKTQTKKEIDSKNLVEKKKETKKANHKGSENKTDLDNSIGIKKMKTSCKFKIDSNISPKKDSKEFTQKNKKEKKNIVQHTTDSSLEEKQRTLDSGTSEIVKSPRIECSKTRREMQSVVQLIMTRDSDGYENSTDGEMCDKDALEEDSESVSEIGSDEESENEITSVGRASGDDDGSEDDEEEDEDEEEDEDEDSEDDDKSDSGPDLARGKGNIETSSEDEDDTADLFPEESGFEHAWRELDKDAPRADEITRRLAVCNMDWDRLKAKDLLALFNSFKPKGGVIFSVKIYPSEFGKERMKEEQVQGPVELLSIPEDAPEKDWTSREKLRDYQFKRLKYYYAVVDCDSPETASKIYEDCDGLEFESSCSFIDLRFIPDDITFDDEPKDVASEVNLTAYKPKYFTSAAMGTSTVEITWDETDHERITMLNRKFKKEELLDMDFQAYLASSSEDEEEIEEELQGDDGVNVEEDGKTKKSQKDDEEQIAKYRQLLQVIQEKEKKGKENDMEMEIKWVPGLKESAEEMVKNKLEGKDKLTPWEQFLEKKKEKKRLKRKQKALAEEASEEELPSDVDLNDPYFAEEVKQIGINKKSVKSAKDGTSPEEEIEIERQKAEMALLMMDEDEDSKKHFNYNKIVEHQNLSKKKKKQLMKKKELIEDDFEVNVNDARFQAMYTSHLFNLDPSDPNFKKTKAMEKILEEKARQRERKEQELTQAIKKKESEIEKESQRKSIDPALSMLIKSIKTKTEQFQARKKQKVK
B3: WDR70 (protein, UniProt Q9NW82 1-654, looked up)
WD repeat-containing protein …: MERSGPSEVTGSDASGPDPQLAVTMGFTGFGKKARTFDLEAMFEQTRRTAVERSRKTLEAREKEEEMNREKELRRQNEDIEPTSSRSNVVRDCSKSSSRDTSSSESEQSSDSSDDELIGPPLPPKMVGKPVNFMEEDILGPLPPPLNEEEEEAEEEEEEEEEEENPVHKIPDSHEITLKHGTKTVSALGLDPSGARLVTGGYDYDVKFWDFAGMDASFKAFRSLQPCECHQIKSLQYSNTGDMILVVSGSSQAKVIDRDGFEVMECIKGDQYIVDMANTKGHTAMLHTGSWHPKIKGEFMTCSNDATVRTWEVENPKKQKSVFKPRTMQGKKVIPTTCTYSRDGNLIAAACQNGSIQIWDRNLTVHPKFHYKQAHDSGTDTSCVTFSYDGNVLASRGGDDSLKLWDIRQFNKPLFSASGLPTMFPMTDCCFSPDDKLIVTGTSIQRGCGSGKLVFFERRTFQRVYEIDITDASVVRCLWHPKLNQIMVGTGNGLAKVYYDPNKSQRGAKLCVVKTQRKAKQAETLTQDYIITPHALPMFREPRQRSTRKQLEKDRLDPLKSHKPEPPVAGPGRGGRVGTHGGTLSSYIVKNIALDKTDDSNPREAILRHAKAAEDSPYWVSPAYSKTQPKTMFAQVESDDEEAKNEPEWKKRKI
B4: THRAP3 (protein, UniProt Q9Y2W1 2-955, looked up)
Thyroid hormone …: SKTNKSKSGSRSSRSRSASRSRSRSFSKSRSRSRSLSRSRKRRLSSRSRSRSYSPAHNRERNHPRVYQNRDFRGHNRGYRRPYYFRGRNRGFYPWGQYNRGGYGNYRSNWQNYRQAYSPRRGRSRSRSPKRRSPSPRSRSHSRNSDKSSSDRSRRSSSSRSSSNHSRVESSKRKSAKEKKSSSKDSRPSQAAGDNQGDEAKEQTFSGGTSQDTKASESSKPWPDATYGTGSASRASAVSELSPRERSPALKSPLQSVVVRRRSPRPSPVPKPSPPLSSTSQMGSTLPSGAGYQSGTHQGQFDHGSGSLSPSKKSPVGKSPPSTGSTYGSSQKEESAASGGAAYTKRYLEEQKTENGKDKEQKQTNTDKEKIKEKGSFSDTGLGDGKMKSDSFAPKTDSEKPFRGSQSPKRYKLRDDFEKKMADFHKEEMDDQDKDKAKGRKESEFDDEPKFMSKVIGANKNQEEEKSGKWEGLVYAPPGKEKQRKTEELEEESFPERSKKEDRGKRSEGGHRGFVPEKNFRVTAYKAVQEKSSSPPPRKTSESRDKLGAKGDFPTGKSSFSITREAQVNVRMDSFDEDLARPSGLLAQERKLCRDLVHSNKKEQEFRSIFQHIQSAQSQRSPSELFAQHIVTIVHHVKEHHFGSSGMTLHERFTKYLKRGTEQEAAKNKKSPEIHRRIDISPSTFRKHGLAHDEMKSPREPGYKAEGKYKDDPVDLRLDIERRKKHKERDLKRGKSRESVDSRDSSHSRERSAEKTEKTHKGSKKQKKHRRARDRSRSSSSSSQSSHSYKAEEYTEETEEREESTTGFDKSRLGTKDFVGPSERGGGRARGTFQFRARGRGWGRGNYSGNNNNNSNNDFQKRNREEEWDPEYTPKSKKYYLHDDREGEGSDKWVSRGRGRGAFPRGRGRFMFRKSSTSPKWAHDKFSGEEGEIEDDESGTENREEKDNIQPTTE
B5: ACIN1 (protein, UniProt Q9UKV3 1-1341, looked up)
Apoptotic chromatin …: MWRRKHPRTSGGTRGVLSGNRGVEYGSGRGHLGTFEGRWRKLPKMPEAVGTDPSTSRKMAELEEVTLDGKPLQALRVTDLKAALEQRGLAKSGQKSALVKRLKGALMLENLQKHSTPHAAFQPNSQIGEEMSQNSFIKQYLEKQQELLRQRLEREAREAAELEEASAESEDEMIHPEGVASLLPPDFQSSLERPELELSRHSPRKSSSISEEKGDSDDEKPRKGERRSSRVRQARAAKLSEGSQPAEEEEDQETPSRNLRVRADRNLKTEEEEEEEEEEEEDDEEEEGDDEGQKSREAPILKEFKEEGEEIPRVKPEEMMDERPKTRSQEQEVLERGGRFTRSQEEARKSHLARQQQEKEMKTTSPLEEEEREIKSSQGLKEKSKSPSPPRLTEDRKKASLVALPEQTASEEETPPPLLTKEASSPPPHPQLHSEEEIEPMEGPAPAVLIQLSPPNTDADTRELLVSQHTVQLVGGLSPLSSPSDTKAESPAEKVPEESVLPLVQKSTLADYSAQKDLEPESDRSAQPLPLKIEELALAKGITEECLKQPSLEQKEGRRASHTLLPSHRLKQSADSSSSRSSSSSSSSSRSRSRSPDSSGSRSHSPLRSKQRDVAQARTHANPRGRPKMGSRSTSESRSRSRSRSRSASSNSRKSLSPGVSRDSSTSYTETKDPSSGQEVATPPVPQLQVCEPKERTSTSSSSVQARRLSQPESAEKHVTQRLQPERGSPKKCEAEEAEPPAATQPQTSETQTSHLPESERIHHTVEEKEEVTMDTSENRPENDVPEPPMPIADQVSNDDRPEGSVEDEEKKESSLPKSFKRKISVVSATKGVPAGNSDTEGGQPGRKRRWGASTATTQKKPSISITTESLKSLIPDIKPLAGQEAVVDLHADDSRISEDETERNGDDGTHDKGLKICRTVTQVVPAEGQENGQREEEEEEKEPEAEPPVPPQVSVEVALPPPAEHEVKKVTLGDTLTRRSISQQKSGVSITIDDPVRTAQVPSPPRGKISNIVHISNLVRPFTLGQLKELLGRTGTLVEEAFWIDKIKSHCFVTYSTVEEAVATRTALHGVKWPQSNPKFLCADYAEQDELDYHRGLLVDRPSETKTEEQGIPRPLHPPPPPPVQPPQHPRAEQREQERAVREQWAEREREMERRERTRSEREWDRDKVREGPRSRSRSRDRRRKERAKSKEKKSEKKEKAQEEPPAKLLDDLFRKTKAAPCIYWLPLTDSQIVQKEAERAERAKEREKRRKEQEEEEQKEREKEAERERNRQLEREKRREHSRERDRERERERERDRGDRDRDRERDRERGRERDRRDTKRHSRSRSRSTPVRDRGGRR
B6: RANBP3 (protein, UniProt Q9H6Z4 2-567, looked up)
Ran-binding protein 3: ADLANEEKPAIAPPVFVFQKDKGQKSPAEQKNLSDSGEEPRGEAEAPHHGTGHPESAGEHALEPPAPAGASASTPPPPAPEAQLPPFPRELAGRSAGGSSPEGGEDSDREDGNYCPPVKRERTSSLTQFPPSQSEERSSGFRLKPPTLIHGQAPSAGLPSQKPKEQQRSVLRPAVLQAPQPKALSQTVPSSGTNGVSLPADCTGAVPAASPDTAAWRSPSEAADEVCALEEKEPQKNESSNASEEEACEKKDPATQQAFVFGQNLRDRVKLINESVDEADMENAGHPSADTPTATNYFLQYISSSLENSTNSADASSNKFVFGQNMSERVLSPPKLNEVSSDANRENAAAESGSESSSQEATPEKESLAESAAAYTKATARKCLLEKVEVITGEEAESNVLQMQCKLFVFDKTSQSWVERGRGLLRLNDMASTDDGTLQSRLVMRTQGSLRLILNTKLWAQMQIDKASEKSIRITAMDTEDQGVKVFLISASSKDTGQLYAALHHRILALRSRVEQEQEAKMPAPEPGAAPSNEEDDSDDDDVLAPSGATAAGAGDEGDGQTTGST
B7: C11orf58;SMAP (protein, UniProt O00193 1-183, looked up)
Small acidic protein: MSAARESHPHGVKRSASPDDDLGSSNWEAADLGNEERKQKFLRLMGAGKKEHTGRLVIGDHKSTSHFRTGEEDKKINEELESQYQQSMDSKLSGRYRRHCGLGFSEVEDHDGEGDVAGDDDDDDDDSPDPESPDDSESDSESEKEESAEELQAAEHPDEVEDPKNKKDAKSNYKMMFVKSSGS

System: BirA*-FLAG-GATAD1 variants in Flp-In-293 cells
Experiment: BioID proximity labelling of full-length GATAD1 variants (SILAC)
Assay type: cell-based, human
Settings: GATAD1 WT vs S102P, significant proteins only; for Log2_Ratio.H.L.normalized.WT_S102P_forward: forward experiment (label swap performed, sign inverted against the H/L ratio); for Log2_Ratio.H.L.normalized.WT_S102P_forward / Log2_Ratio.H.L.normalized.WT_S102P_reverse: log2 of normalized H/L ratio; for Ratio.H.L.normalized.WT_S102P_forward: forward experiment; for Log2_Ratio.H.L.normalized.WT_S102P_reverse / Ratio.H.L.normalized.WT_S102P_reverse: reverse experiment
Summary of the method: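 Tetracycline-inducible Flp-In-293 T-REx lines expressing N-terminal BirA*-FLAG GATAD1 variants (WT, S102P, S102D, S102A) were SILAC-labelled, induced with 1 μg/mL tetracycline for 24 h and given 50 μM biotin overnight. Streptavidin-enriched proteins were trypsin-digested on-bead and analysed by LC-MS/MS. Label-swapped log2 SILAC ratios beyond ±1 defined differential proteins (n = 2).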

Molecule | Log2_Ratio.H.L.normalized.WT_S102P_forward | Ratio.H.L.normalized.WT_S102P_forward | Log2_Ratio.H.L.normalized.WT_S102P_reverse | Ratio.H.L.normalized.WT_S102P_reverse
B1 | 1.042 | 0.4856 | 1.085 | 2.1217
B2 | 1.318 | 0.401 | 1.077 | 2.1103
B3 | 1.547 | 0.3422 | 1.108 | 2.1553
B4 | 1.318 | 0.4011 | 1.052 | 2.0733
B5 | 1.249 | 0.4208 | 1.096 | 2.1371
B6 | 1.029 | 0.49 | 1.139 | 2.2024
B7 | 1.333 | 0.3971 | 1.1961 | 2.2912
